Reference: US20230074793A1 (Xencor, published 2023)

Biological target: PD1 (programmed cell death protein 1) (human, UniProt Q15116 25-288)
Assay: cell-based or functional assay

Chain of PD1 (programmed cell death protein 1) (Q15116 25-288): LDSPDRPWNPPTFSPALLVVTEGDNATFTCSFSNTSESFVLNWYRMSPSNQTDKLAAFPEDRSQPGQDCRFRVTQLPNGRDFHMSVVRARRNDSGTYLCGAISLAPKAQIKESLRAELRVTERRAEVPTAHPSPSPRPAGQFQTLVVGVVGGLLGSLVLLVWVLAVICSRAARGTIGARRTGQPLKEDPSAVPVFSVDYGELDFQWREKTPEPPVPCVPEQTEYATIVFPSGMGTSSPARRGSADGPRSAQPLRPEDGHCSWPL

B1: XmAb®20717 (bispecific antibody, human IgG1, kappa)
heavy: not shown
scFv: EIVLTQSPATLSASPGERVTLTCRASQSVGNDVAWYQQKPGQAPRLLINYASHRYTGVPDRFTGSGYGTEFTLTISSVQSEDFGVYYCQQDFSSPRTFGGGTKVEIKGKPGSGKPGSGKPGSGKPGSEVQLVESGGGLVKPGGSLRLSCVASGFTFSNYWMNWVRQAPGKGLEWVAEIRLYSNNYATHYAESVKGRFTISRDDSKSTLYLQMNNLKTEDTGVYYCTRYYGNYGGYFDVWGRGTLVTVSSEPKSSDKTHTCPPCPAPPVAGPSVFLFPPKPKDTLMISRTPEVTCVVVDVKHEDPEVKFNWYVDGVEVHNAKTKPREEQYNSTYRVVSVLTVLHQDWLNGKEYKCKVSNKALPAPIEKTISKAKGQPREPQVYTLPPSREQMTKNQVKLTCLVKGFYPSDIAVEWESNGQPENNYKTTPPVLDSDGSFFLYSKLTVDKSRWQQGNVFSCSVLHEALHSHYTQKSLSLSPGK
light: not shown
IL-2 secretion (ELISA of culture supernatants) from SEB-stimulated human PBMC treated 24 hours, versus anti-RSV isotype-control bivalent antibody XENP15074: 4.1 fold
IL-2 secretion (ELISA) from SEB-stimulated human PBMC, versus a mixture of the monovalent component antibodies XENP20111 (anti-PD1 scFv-Fc) and XENP20059 (anti-CTLA4 Fab-Fc): 1.6 fold
IL-2 secretion (ELISA) from SEB-stimulated human PBMC, versus the bivalent anti-PD1 antibody XENP16432: 1.5 fold
